# B1: BTB/POZ domain-containing protein 3 (Schizosaccharomyces pombe (strain ATCC 38366 / 972)), Q10225 (parent)
# chain: MASQDQNTGTTHVELQGGENSKKLFSKYDLWSKAMDEKKLSSSLFTVNDTQEFLELCEACRRGDLEVVKSLVENYNTPINQVDQFDYSPLVLASLCGHEPVVKFLLENGALCERDTFQGERCLYGALNDNIRRMLLSYDITKAIDESQPYASHITSLLSNSALHFTTDIVFAGQYGRVFAHKFYLAARSSYFKSKFSKLGPSEHEIEVKHFAKEFESILRYLYLDTNAVFTKQYNNALLSIGKKFQLNDFIALYEKDREQLHSRDWKKIQLAKTQNDLGEFLDYIISNYKVPIESLNQPSDQYSFHDAYLQSYTHRYPVHRAIMCRCEYFLDMLAGPFLESNQELPVLSLPFSSSVVEIVLKFLYTDKTDIAPELALDVVYVADMLSLDKDRSLKSLASIVITKQEEPIDSIYDILRTAWDTSTPRLEQYASEYMANHLEHLIDDPEFCELVKESADRILQRQETDTIELIDDIRYFLSKRFGIYHEDLCIDGVVDTLTPYESEYNQKMEMIDDLLDKLELQA
# partner: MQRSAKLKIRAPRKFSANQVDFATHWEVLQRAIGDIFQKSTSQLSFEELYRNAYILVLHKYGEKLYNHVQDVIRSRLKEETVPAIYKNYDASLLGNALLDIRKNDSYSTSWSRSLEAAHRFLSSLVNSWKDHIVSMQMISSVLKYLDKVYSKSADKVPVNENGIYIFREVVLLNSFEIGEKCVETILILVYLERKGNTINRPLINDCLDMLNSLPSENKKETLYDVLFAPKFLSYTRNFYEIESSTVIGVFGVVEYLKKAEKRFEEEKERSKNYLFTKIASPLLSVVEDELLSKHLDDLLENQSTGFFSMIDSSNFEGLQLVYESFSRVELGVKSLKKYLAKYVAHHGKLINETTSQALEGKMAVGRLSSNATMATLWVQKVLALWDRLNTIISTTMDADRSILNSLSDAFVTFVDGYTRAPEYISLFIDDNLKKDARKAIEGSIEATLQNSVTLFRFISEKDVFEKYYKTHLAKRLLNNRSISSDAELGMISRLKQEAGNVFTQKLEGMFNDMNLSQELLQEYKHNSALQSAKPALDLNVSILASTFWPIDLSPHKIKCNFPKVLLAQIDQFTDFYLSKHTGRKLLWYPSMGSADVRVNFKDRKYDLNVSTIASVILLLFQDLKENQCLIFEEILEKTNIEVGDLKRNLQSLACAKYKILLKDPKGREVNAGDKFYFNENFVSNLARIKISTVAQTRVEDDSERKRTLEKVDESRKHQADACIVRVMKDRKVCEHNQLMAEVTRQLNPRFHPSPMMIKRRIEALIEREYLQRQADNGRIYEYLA
# B2: Cullin-3 (Schizosaccharomyces pombe (strain ATCC 38366 / 972)), Q09760 (parent)
# chain: B1 partner
# partner: B1 chain
# Variants of: B1
# Conditions: with cul3_schpo cul3, Q09760
row,Variant,effect of a mutation on the interaction
1,H181L,disrupting interaction
2,D168A,disrupting interaction

# Variants of: B2
# Conditions: with btb3_schpo btb3, Q10225
row,Variant,effect of a mutation on the interaction
1,Y50G,disrupting interaction

# — IntAct's records for PubMed 14527422
